According to the Immune Epitope Database (IEDB):

Legend:
HLA-A*01:01 [1] = test: IEDB peptide-MHC binding, purified MHC/competitive/fluorescence; filed as Kd, often an IC50 or EC50 that approximates it; ≥ and ≤ were set here for values at or beyond the usual limits of such assays
HLA-A*30:01 = test: as above
HLA-B*08:01 [2] = test: as above
HLA-B*15:01 [3] = test: as above; settings: source organism: Human immunodeficiency virus type 1 (MAL ISOLATE)
HLA-B*15:09 = test: as above; settings: source organism: Human immunodeficiency virus type 1 (MAL ISOLATE)
HLA-B*15:17 [4] = test: as above; settings: source organism: Human immunodeficiency virus type 1 (MAL ISOLATE)
HLA-B*38:01 = test: as above; settings: source organism: Human immunodeficiency virus type 1 (MAL ISOLATE)
HLA-A*02:06 = test: IEDB peptide-MHC binding, purified MHC/direct/fluorescence; filed as Kd, often an IC50 or EC50 that approximates it; ≥ and ≤ were set here for values at or beyond the usual limits of such assays; settings: source organism: Vibrio vulnificus CMCP6
HLA-A*02:12 = test: as above; settings: source organism: Vibrio vulnificus CMCP6
HLA-A*03:01 = test: as above
HLA-A*24:03 = test: as above; settings: source organism: Vibrio vulnificus CMCP6
HLA-A*26:01 = test: as above
HLA-B*15:17 [5] = test: as above; settings: source organism: Vibrio vulnificus CMCP6
HLA-B*40:01 = test: as above
HLA-B*51:01 = test: as above; settings: source organism: Vibrio vulnificus CMCP6
HLA-B*57:01 [6] = test: as above; settings: source organism: Vibrio vulnificus CMCP6
HLA-A*02:01 [7] = test: IEDB peptide-MHC binding, purified MHC/competitive/fluorescence; filed as Kd, often an IC50 or EC50 that approximates it; ≥ and ≤ were set here for values at or beyond the usual limits of such assays; settings: source organism: Vibrio vulnificus CMCP6
HLA-A*11:01 [8] = test: as above; settings: source organism: Vibrio vulnificus CMCP6
HLA-A*23:01 = test: as above; settings: source organism: Vibrio vulnificus CMCP6
HLA-A*29:02 [9] = test: as above; settings: source organism: Vibrio vulnificus CMCP6
HLA-A*66:01 = test: as above; settings: source organism: Vibrio vulnificus CMCP6
HLA-B*07:02 [10] = test: as above; settings: source organism: Vibrio vulnificus CMCP6
HLA-B*14:02 = test: as above; settings: source organism: Vibrio vulnificus CMCP6
HLA-B*18:01 = test: as above; settings: source organism: Vibrio vulnificus CMCP6
HLA-B*27:05 [11] = test: as above; settings: source organism: Vibrio vulnificus CMCP6
HLA-B*39:01 = test: as above; settings: source organism: Vibrio vulnificus CMCP6
HLA-B*44:02 = test: as above; settings: source organism: Vibrio vulnificus CMCP6
HLA-B*53:01 = test: as above; settings: source organism: Vibrio vulnificus CMCP6
HLA-B*58:01 [12] = test: as above; settings: source organism: Vibrio vulnificus CMCP6
HLA-A*01:01 [13] = test: IEDB peptide-MHC binding, purified MHC/direct/fluorescence; filed as Kd, often an IC50 or EC50 that approximates it; ≥ and ≤ were set here for values at or beyond the usual limits of such assays; settings: source organism: Escherichia coli
HLA-A*02:01 [14] = test: as above; settings: source organism: Escherichia coli
HLA-A*11:01 [15] = test: as above; settings: source organism: Escherichia coli
HLA-A*31:01 = test: as above; settings: source organism: Escherichia coli
HLA-A*69:01 = test: as above; settings: source organism: Escherichia coli
HLA-B*07:02 [16] = test: as above; settings: source organism: Escherichia coli
HLA-B*08:01 [17] = test: as above; settings: source organism: Escherichia coli
HLA-B*15:01 [18] = test: as above; settings: source organism: Escherichia coli
HLA-B*15:02 = test: as above; settings: source organism: Salmonella enterica subsp. enterica serovar Dublin
HLA-B*27:05 [19] = test: as above; settings: source organism: Escherichia coli
HLA-B*35:01 = test: as above; settings: source organism: Escherichia coli
HLA-A*02:01 [20] = test: IEDB peptide-MHC binding, purified MHC/competitive/radioactivity; filed as Kd, often an IC50 or EC50 that approximates it; ≥ and ≤ were set here for values at or beyond the usual limits of such assays; settings: source organism: Homo sapiens
HLA-A*02:07 = test: as above; settings: source organism: Homo sapiens
HLA-A*29:02 [21] = test: as above; settings: source organism: Homo sapiens
HLA-B*57:01 [22] = test: as above; settings: source organism: Homo sapiens
HLA-B*58:01 [23] = test: as above; settings: source organism: Homo sapiens
[24] = source organism: Human immunodeficiency virus type 1 (MAL ISOLATE)
[25] = source organism: Vibrio vulnificus CMCP6
[26] = source organism: Escherichia coli

Question: GSEEIKSLY was tested. Which Kd (HLA-A*01:01 [1]; [24]) did it give?
Answer: 0.0503 µM

Question: And the Kd (HLA-A*30:01; [24])?
Answer: ≥ 20 µM

Question: And the Kd (HLA-B*08:01 [2]; [24])?
Answer: ≥ 20 µM

Question: And the Kd (HLA-B*15:01 [3])?
Answer: 1.07 µM

Question: What about the Kd (HLA-B*15:09) of the same sequence?
Answer: ≥ 20 µM

Question: And the Kd (HLA-B*15:17 [4])?
Answer: 0.0989 µM

Question: What about the Kd (HLA-B*38:01) of the same sequence?
Answer: ≥ 20 µM

Question: Which results are given for KQIVIINPM?
Answer: Kd (HLA-A*02:06): 0.002 µM; Kd (HLA-A*02:12): 0.064 µM; Kd (HLA-A*03:01; [25]): ≥ 20 µM; Kd (HLA-A*24:03): 0.135 µM; Kd (HLA-A*26:01; [25]): ≥ 20 µM; Kd (HLA-B*15:17 [5]): ≥ 20 µM; Kd (HLA-B*40:01; [25]): 0.238 µM; Kd (HLA-B*51:01): ≥ 20 µM; Kd (HLA-B*57:01 [6]): ≥ 20 µM; Kd (HLA-A*01:01 [1]; [25]): ≥ 5 µM; Kd (HLA-A*02:01 [7]): ≥ 5 µM; Kd (HLA-A*11:01 [8]): ≥ 5 µM; Kd (HLA-A*23:01): ≥ 5 µM; Kd (HLA-A*29:02 [9]): ≥ 5 µM; Kd (HLA-A*30:01; [25]): ≥ 5 µM; Kd (HLA-A*66:01): ≥ 5 µM; Kd (HLA-B*07:02 [10]): ≥ 5 µM; Kd (HLA-B*08:01 [2]; [25]): ≥ 5 µM; Kd (HLA-B*14:02): ≥ 5 µM; Kd (HLA-B*18:01): ≥ 5 µM; Kd (HLA-B*27:05 [11]): 0.0389 µM; Kd (HLA-B*39:01): ≥ 5 µM; Kd (HLA-B*44:02): ≥ 5 µM; Kd (HLA-B*53:01): ≥ 5 µM; Kd (HLA-B*58:01 [12]): ≥ 5 µM

Question: With SSMNSDAAY as the sequence, how does the Kd (HLA-A*01:01 [13]) read?
Answer: 0.171 µM

Question: And the Kd (HLA-A*02:01 [14])?
Answer: ≥ 20 µM

Question: And the Kd (HLA-A*03:01; [26])?
Answer: ≥ 20 µM

Question: What about the Kd (HLA-A*11:01 [15]) of the same sequence?
Answer: 0.144 µM

Question: What about the Kd (HLA-A*26:01; [26]) of the same sequence?
Answer: 0.0276 µM

Question: What about the Kd (HLA-A*31:01) of the same sequence?
Answer: ≥ 20 µM

Question: And the Kd (HLA-A*69:01)?
Answer: ≥ 20 µM

Question: What about the Kd (HLA-B*07:02 [16]) of the same sequence?
Answer: ≥ 20 µM

Question: What about the Kd (HLA-B*08:01 [17]) of the same sequence?
Answer: ≥ 20 µM

Question: And the Kd (HLA-B*15:01 [18])?
Answer: 0.15 µM

Question: And the Kd (HLA-B*15:02)?
Answer: 0.026 µM

Question: And the Kd (HLA-B*27:05 [19])?
Answer: ≥ 20 µM

Question: And the Kd (HLA-B*35:01)?
Answer: 0.0115 µM

Question: And the Kd (HLA-B*40:01; [26])?
Answer: ≥ 20 µM

Question: What does the source list for YMIDPSGVSY?
Answer: Kd (HLA-A*02:01 [20]): 0.651 µM; Kd (HLA-A*02:07): 12.7 µM; Kd (HLA-A*29:02 [21]): 0.0193 µM; Kd (HLA-B*57:01 [22]): ≥ 31.6 µM; Kd (HLA-B*58:01 [23]): 0.589 µM
